One molecule from patent publication US20220185910A1 (EUREKA THERAPEUTICS, published 2022) can be followed below.

The target in this assay is T1, human prostate specific membrane antigen (PSMA) (human, UniProt Q04609 1-750).
T1 construct: PSMA was on the cell surface: LNCaP and 22Rv1 (endogenous), PC3-PSMA and Jurkat-PSMA (lentiviral transduction); also called hPSMA
The assay can be described thus: flow cytometry of phage scFv clones after cell panning on Jurkat-PSMA (parental Jurkat as negative selection). The text has this:
A collection of human scFv antibody phage display libraries (diversity=10×10¹⁰) constructed by Eureka Therapeutics (i.e., the E-ALPHA® phage display library) was used for the selection of human mAbs specific to PSMA. Specifically, the E-ALPHA® phage display library was used to pan against a Jurkat cell line that has been engineered to express PSMA. The parental Jurkat cell line was used for negative selection. […] The VL in each scFv is underlined, the VH in each scFv is double underlined, and the linker is in bold italic type. The CDRs are in underlined bold type and double underlined bold type.
In general terms: A flow cytometer gives signals particle by particle.

T1 sequence (Q04609 whole entry): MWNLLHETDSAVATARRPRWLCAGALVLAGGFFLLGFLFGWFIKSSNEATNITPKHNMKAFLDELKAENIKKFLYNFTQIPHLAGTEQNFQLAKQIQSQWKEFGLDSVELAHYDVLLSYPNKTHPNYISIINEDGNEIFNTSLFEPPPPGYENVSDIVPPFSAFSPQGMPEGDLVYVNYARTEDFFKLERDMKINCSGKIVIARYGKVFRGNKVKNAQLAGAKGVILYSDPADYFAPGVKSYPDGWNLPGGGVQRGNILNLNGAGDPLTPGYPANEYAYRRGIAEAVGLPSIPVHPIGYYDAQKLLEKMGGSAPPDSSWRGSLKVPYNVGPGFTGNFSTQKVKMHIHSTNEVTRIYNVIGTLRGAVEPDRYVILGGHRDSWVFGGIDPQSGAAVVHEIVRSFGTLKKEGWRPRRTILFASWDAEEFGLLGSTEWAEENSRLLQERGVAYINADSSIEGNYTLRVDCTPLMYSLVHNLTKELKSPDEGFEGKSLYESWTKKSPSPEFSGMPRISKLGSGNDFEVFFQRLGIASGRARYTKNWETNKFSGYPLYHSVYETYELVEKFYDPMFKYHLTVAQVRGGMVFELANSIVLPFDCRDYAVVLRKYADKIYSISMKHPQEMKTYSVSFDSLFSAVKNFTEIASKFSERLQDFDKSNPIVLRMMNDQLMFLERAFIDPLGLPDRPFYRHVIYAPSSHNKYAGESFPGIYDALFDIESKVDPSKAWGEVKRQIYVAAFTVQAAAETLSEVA

B1: Clone A anti-PSMA scFv (scFv)
scFv: QSVLTQPPSVSGAPGQRVTISCTGSSSNIGAGYDVHWYQQLPGTAPKLLIYGNSNRPSGVPDRFSGSKSGTSASLAITGLQAEDEADYYCQSYDSSLSGYVFGTGTKVTVLGSRGGGGSGGGGSGGGGSLEMAEVQLVQSGAEVKKPGESLKISCKGSGYSFTSYWIGWVRQMPGKGLEWMGIIYPGDSDTRYSPSFQGQVTISADKSISTAYLQWSSLKASDTAMYYCARSMGSSLYASSDVWGQGTLVTVSS
notes: Human scFv (VL-linker-VH) isolated from the E-ALPHA phage display library; the phage coat fusion is not described; also called phage clone A
With B1, the binding result is recorded as “binds”.
